Measurements reported in publication PMC3349548, “UBXN7 docks on neddylated cullin complexes using its UIM motif and causes HIF1α accumulation” (BMC Biology, 2012).

How the values were obtained:
Settings in all cases: both partners purified
[1] = target: T1, CUL2/RBX1, unmodified (full-length CUL2, GST cleaved off) (human | , UniProt Q13617-1 1-745; P62877 1-108); assay: co-IP; 1.5 μg CUL2/RBX1 (unmodified or neddylated in vitro) pre-incubated with 1.5 μg bacterially expressed Flag-UBXN7 for 30 minutes, then one hour with anti-Flag beads in buffer D
T1 construct: CUL2, human, full-length; RBX1, amplified from EST IMAGE 3138751; also called unmodified CUL2; non-neddylated CUL2; source: Spodoptera frugiperda 21 cells (baculovirus), purified (GSH-Sepharose, GST cleaved with PreScission protease)

[2] = target: T2, CUL2/RBX1, neddylated in vitro (partially neddylated full-length CUL2) (human | , UniProt Q13617-1 1-745; P62877 1-108; Q15843 1-76, NEDD8 conjugated in vitro on only a fraction of CUL2; Lys689 is the site of NEDD8-conjugation in human CUL2); assay: as above
T2 construct: CUL2, human, full-length; RBX1, amplified from EST IMAGE 3138751; NEDD8 (BostonBiochem) conjugated to CUL2 in vitro; RBX1 substoichiometric; also called neddylated CUL2; CUL2 that was in vitro neddylated; copies: + +

[3] = target: T3, ubiquitin-agarose (UniProt P0CG47 1-76); assay: pull-down; 25 μg recombinant UBXN7 variant incubated for one hour with 10 μl NEDD8- or ubiquitin-agarose in buffer D (50 mM HEPES/KOH pH 7.5, 60 mM KOAc, 5 mM MgCl2, 5% glycerol, 0.1% Triton X-100)
T3 construct: ubiquitin coupled to agarose beads; source: bought: BostonBiochem (ubiquitin-agarose)

[4] = target: T4, Flag-CUL1(324-776)/GST-HA-RBX1 complex, non-neddylated (mock neddylation) (UniProt Q13616 324-776; P62877 1-108); assay: pull-down; Flag-CUL1(324-776)/GST-HA-RBX1 (about 1 μg) immobilized on GSH-sepharose, neddylated or mock-treated, incubated for one hour with 3 μg Flag-UBXN7 variant in buffer D; naked beads as control
T4 construct: RBX1; also called non-neddylated CUL1 fragment; CUL1/RBX1 complex; source: E. coli BL21, co-expressed, immobilized from lysate on GSH-sepharose

[5] = target: T5, Flag-CUL1(324-776)/GST-HA-RBX1 complex, neddylated in vitro (mixture of neddylated and non-neddylated) (UniProt Q13616 324-776; P62877 1-108; Q15843 1-76, NEDD8 conjugated in vitro (mixture of neddylated and non-neddylated); site not stated); assay: as above
T5 construct: RBX1; NEDD8 (BostonBiochem) conjugated to the CUL1 fragment in vitro; also called neddylated CUL1 fragment; source: E. coli BL21, co-expressed, immobilized from lysate on GSH-sepharose, neddylated in vitro on the beads; copies: + +

Measured: binding result

T4 sequence (Q13616 324-776, chain 1 of 2): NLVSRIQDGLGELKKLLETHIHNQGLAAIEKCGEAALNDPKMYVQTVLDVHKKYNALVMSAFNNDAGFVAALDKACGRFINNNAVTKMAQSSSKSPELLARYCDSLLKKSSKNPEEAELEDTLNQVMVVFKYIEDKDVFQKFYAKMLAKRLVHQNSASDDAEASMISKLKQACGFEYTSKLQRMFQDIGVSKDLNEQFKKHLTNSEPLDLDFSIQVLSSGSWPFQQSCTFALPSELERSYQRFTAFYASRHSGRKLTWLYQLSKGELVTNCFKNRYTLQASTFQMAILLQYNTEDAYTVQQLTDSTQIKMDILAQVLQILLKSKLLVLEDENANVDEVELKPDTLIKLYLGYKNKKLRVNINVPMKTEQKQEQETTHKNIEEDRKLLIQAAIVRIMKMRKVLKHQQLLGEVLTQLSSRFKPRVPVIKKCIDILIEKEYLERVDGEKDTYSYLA
T4 sequence (P62877 whole entry, chain 2 of 2, the tested form may be a part): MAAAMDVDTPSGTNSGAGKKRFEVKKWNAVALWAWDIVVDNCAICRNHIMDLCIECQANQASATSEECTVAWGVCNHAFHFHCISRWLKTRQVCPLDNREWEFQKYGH
T5 sequence (Q13616 324-776, chain 1 of 3): as the sequence (Q13616 324-776, chain 1 of 2) above
T5 sequence (P62877 whole entry, chain 2 of 3, the tested form may be a part): as the sequence (P62877 whole entry, chain 2 of 2, the tested form may be a part) above
T5 sequence (Q15843 1-76, chain 3 of 3): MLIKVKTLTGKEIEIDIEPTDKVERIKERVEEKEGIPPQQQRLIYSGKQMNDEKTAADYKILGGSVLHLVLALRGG
T2 sequence (Q13617 whole entry, chain 1 of 3): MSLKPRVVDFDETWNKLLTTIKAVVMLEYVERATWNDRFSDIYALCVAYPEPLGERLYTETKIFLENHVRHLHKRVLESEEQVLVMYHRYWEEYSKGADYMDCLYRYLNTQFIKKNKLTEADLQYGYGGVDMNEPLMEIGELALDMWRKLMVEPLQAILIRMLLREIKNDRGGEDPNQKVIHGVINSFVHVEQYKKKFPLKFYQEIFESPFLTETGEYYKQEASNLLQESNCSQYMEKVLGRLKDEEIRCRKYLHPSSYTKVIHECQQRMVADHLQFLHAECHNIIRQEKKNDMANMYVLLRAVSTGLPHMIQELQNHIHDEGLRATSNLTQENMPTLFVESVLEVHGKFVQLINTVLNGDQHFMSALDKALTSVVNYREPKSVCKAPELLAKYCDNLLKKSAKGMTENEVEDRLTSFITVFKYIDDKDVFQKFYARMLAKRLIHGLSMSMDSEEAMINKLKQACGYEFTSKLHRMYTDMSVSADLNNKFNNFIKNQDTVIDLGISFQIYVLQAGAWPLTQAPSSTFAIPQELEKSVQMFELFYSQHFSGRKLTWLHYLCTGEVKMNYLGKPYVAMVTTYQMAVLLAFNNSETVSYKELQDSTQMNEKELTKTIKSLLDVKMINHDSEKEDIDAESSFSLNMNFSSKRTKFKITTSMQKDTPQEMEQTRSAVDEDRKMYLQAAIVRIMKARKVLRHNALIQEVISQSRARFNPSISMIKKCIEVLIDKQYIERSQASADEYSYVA
T2 sequence (P62877 whole entry, chain 2 of 3): as the sequence (P62877 whole entry, chain 2 of 2, the tested form may be a part) above
T2 sequence (Q15843 1-76, chain 3 of 3): as the sequence (Q15843 1-76, chain 3 of 3) above
T1 sequence (Q13617 whole entry, chain 1 of 2): as the sequence (Q13617 whole entry, chain 1 of 3) above
T1 sequence (P62877 whole entry, chain 2 of 2): as the sequence (P62877 whole entry, chain 2 of 2, the tested form may be a part) above

B1: bacterially expressed Flag-UBXN7 (wild-type, full length) (natural protein, human, UniProt O94888 1-489, looked up)
chain: MAAHGGSAASSALKGLIQQFTTITGASESVGKHMLEACNNNLEMAVTMFLDGGGIAEEPSTSSASVSTVRPHTEEEVRAPIPQKQEILVEPEPLFGAPKRRRPARSIFDGFRDFQTETIRQEQELRNGGAIDKKLTTLADLFRPPIDLMHKGSFETAKECGQMQNKWLMINIQNVQDFACQCLNRDVWSNEAVKNIIREHFIFWQVYHDSEEGQRYIQFYKLGDFPYVSILDPRTGQKLVEWHQLDVSSFLDQVTGFLGEHGQLDGLSSSPPKKCARSESLIDASEDSQLEAAIRASLQETHFDSTQTKQDSRSDEESESELFSGSEEFISVCGSDEEEEVENLAKSRKSPHKDLGHRKEENRRPLTEPPVRTDPGTATNHQGLPAVDSEILEMPPEKADGVVEGIDVNGPKAQLMLRYPDGKREQITLPEQAKLLALVKHVQSKGYPNERFELLTNFPRRKLSHLDYDITLQEAGLCPQETVFVQERN
notes: UBXN7, human, full length, in a modified pGEX6P-1 vector; also called wild-type UBXN7; recombinant UBXN7; source: E. coli BL21 DE3, purified (GSH-sepharose, TEV cleavage, Superdex 75)
binds: all assays above
